Measured values: paper PMC2173515 (The Journal of Cell Biology, 2003)

Assays:
Experiment in all cases: co-IP
[1] = target: T1, Vps27 truncated at residue 485 (yeast, UniProt P40343 1-485)
T1 sequence: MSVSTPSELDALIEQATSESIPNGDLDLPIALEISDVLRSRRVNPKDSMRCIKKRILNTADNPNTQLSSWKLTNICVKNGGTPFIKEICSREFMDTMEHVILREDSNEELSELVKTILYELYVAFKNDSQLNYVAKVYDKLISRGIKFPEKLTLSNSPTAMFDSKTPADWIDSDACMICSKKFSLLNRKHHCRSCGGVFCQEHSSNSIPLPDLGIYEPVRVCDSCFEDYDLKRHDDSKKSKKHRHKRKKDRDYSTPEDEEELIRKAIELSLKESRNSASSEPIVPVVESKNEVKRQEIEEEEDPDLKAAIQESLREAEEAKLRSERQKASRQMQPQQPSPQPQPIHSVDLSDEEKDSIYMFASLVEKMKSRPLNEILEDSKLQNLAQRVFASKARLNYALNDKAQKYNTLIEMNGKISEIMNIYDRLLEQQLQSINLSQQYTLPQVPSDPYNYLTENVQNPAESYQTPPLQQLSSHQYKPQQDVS

[2] = target: T2, Vps27 truncated at residue 579 (yeast, UniProt P40343 1-579)
T2 sequence: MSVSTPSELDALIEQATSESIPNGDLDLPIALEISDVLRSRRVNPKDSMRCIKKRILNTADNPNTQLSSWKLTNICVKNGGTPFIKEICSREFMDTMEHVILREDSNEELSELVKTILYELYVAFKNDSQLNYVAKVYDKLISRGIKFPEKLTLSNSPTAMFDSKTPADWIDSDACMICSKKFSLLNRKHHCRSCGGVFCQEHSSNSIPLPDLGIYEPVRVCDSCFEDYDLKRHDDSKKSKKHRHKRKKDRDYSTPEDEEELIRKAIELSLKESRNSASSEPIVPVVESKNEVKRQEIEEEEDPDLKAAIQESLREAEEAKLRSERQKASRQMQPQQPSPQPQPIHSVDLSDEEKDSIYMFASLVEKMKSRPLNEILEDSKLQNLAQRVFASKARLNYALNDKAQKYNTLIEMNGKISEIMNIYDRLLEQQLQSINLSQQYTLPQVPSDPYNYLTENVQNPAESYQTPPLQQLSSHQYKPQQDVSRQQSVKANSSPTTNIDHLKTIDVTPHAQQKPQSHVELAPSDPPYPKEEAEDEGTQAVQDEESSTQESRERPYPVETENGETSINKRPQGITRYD

[3] = target: T3, Vps27 truncated at residue 524 (yeast, UniProt P40343 1-524)
T3 sequence: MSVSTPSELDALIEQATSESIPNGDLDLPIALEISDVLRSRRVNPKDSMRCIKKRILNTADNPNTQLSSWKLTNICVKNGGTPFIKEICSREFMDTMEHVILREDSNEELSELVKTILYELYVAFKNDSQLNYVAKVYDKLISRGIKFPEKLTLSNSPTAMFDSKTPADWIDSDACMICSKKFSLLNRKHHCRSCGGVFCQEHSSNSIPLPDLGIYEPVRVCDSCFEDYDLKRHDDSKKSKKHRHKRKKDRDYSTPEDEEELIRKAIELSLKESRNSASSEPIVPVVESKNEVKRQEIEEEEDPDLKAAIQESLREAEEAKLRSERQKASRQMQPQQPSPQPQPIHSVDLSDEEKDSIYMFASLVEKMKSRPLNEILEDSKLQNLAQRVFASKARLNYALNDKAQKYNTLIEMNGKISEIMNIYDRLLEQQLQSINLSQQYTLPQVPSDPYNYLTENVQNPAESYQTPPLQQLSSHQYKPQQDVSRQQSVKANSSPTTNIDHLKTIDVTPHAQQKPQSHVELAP

[4] = target: T4, Vps27 (full-length, wild type) (yeast, UniProt P40343 1-622)
T4 sequence: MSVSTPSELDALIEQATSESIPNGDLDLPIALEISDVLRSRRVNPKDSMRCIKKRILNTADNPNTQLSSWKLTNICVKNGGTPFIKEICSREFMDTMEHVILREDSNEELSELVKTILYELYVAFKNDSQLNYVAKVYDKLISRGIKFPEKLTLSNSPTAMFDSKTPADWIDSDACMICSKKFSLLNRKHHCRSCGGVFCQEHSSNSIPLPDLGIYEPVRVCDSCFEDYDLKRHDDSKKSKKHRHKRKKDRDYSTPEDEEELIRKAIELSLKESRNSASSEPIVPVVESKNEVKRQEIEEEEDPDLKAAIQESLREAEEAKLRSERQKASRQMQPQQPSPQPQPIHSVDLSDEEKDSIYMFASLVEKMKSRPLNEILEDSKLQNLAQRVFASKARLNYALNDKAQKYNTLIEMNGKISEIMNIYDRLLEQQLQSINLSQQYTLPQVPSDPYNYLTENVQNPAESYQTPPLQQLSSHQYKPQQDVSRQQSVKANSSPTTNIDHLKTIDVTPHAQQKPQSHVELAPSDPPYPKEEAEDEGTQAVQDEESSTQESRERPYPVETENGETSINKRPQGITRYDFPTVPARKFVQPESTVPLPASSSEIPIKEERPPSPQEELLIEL

[5] = target: T5, Vps27 truncated at residue 617 (yeast, UniProt P40343 1-617)
T5 sequence: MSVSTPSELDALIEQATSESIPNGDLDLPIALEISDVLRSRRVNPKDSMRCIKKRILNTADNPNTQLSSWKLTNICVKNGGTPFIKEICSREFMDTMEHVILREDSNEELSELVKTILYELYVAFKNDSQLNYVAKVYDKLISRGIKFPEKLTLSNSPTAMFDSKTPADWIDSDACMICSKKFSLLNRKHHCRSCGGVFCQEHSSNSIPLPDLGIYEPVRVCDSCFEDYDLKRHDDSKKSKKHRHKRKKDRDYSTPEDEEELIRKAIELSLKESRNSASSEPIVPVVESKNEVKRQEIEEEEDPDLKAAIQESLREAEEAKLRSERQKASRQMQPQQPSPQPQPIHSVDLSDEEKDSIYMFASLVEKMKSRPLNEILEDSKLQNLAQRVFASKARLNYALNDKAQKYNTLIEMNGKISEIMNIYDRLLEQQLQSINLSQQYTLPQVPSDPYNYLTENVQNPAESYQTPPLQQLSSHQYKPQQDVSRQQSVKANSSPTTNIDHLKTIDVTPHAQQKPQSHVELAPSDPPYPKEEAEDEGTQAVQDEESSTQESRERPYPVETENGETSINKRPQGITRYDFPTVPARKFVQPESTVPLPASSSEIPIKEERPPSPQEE

Measured: percent of Vps23 co-immunoprecipitated

B1: Vps23-HA (natural protein)
chain: MSANGKISVPEAVVNWLFKVIQPIYNDGRTTFHDSLALLDNFHSLRPRTRVFTHSDGTPQLLLSIYGTISTGEDGSSPHSIPVIMWVPSMYPVKPPFISINLENFDMNTISSSLPIQEYIDSNGWIALPILHCWDPAAMNLIMVVQELMSLLHEPPQDQAPSLPPKPNTQLQQEQNTPPLPPKPKSPHLKPPLPPPPPPQPASNALDLMDMDNTDISPTNHHEMLQNLQTVVNELYREDVDYVADKILTRQTVMQESIARFHEIIAIDKNHLRAVEQAIEQTMHSLNAQIDVLTANRAKVQQFSSTSHVDDEDVNSIAVAKTDGLNQLYNLVAQDYALTDTIECLSRMLHRGTIPLDTFVKQGRELARQQFLVRWHIQRITSPLS
~10%: [1] | [2] | [3] | [4] | [5]
